According to EP4592321A1 (Biotheus Inc., dated 2025):
Where a chain is given by its changes, count along the chain named.

B1: Anti-HER2(NO3-02) (antibody, human IgG1, kappa, V domains shown)
VH: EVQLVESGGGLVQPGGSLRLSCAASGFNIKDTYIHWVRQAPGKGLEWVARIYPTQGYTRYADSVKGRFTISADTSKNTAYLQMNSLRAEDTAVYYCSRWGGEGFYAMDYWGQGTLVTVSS
VL: DIQMTQSPSSLSASVGDRVTITCRASQNVQGAVAWYQQKPGKAPKLLIYSASFLYSGVPSRFSGSRSGTDFTLTISSLQPEDFATYYCQQHYSTPPTFGQGTKVEIKR
notes: also called optimized Anti-HER2 antibody
B2: Anti-HER2(NO3-36) (antibody, human IgG1, kappa, V domains shown)
VH: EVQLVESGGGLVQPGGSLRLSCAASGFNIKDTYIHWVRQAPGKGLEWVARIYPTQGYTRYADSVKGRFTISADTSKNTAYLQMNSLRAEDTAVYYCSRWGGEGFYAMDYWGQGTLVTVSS
VL: B1 VL with Q27N, N28Y, G31T, Y92F, S93M
notes: as for B1
B3: Anti-HER2(NO3-46) (antibody, human IgG1, kappa, V domains shown)
VH: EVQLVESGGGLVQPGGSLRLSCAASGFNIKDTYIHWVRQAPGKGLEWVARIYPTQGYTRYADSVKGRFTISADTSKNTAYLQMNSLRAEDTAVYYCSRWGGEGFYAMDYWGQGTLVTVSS
VL: B1 VL with N28S, Y92S, S93T
notes: as for B1
B4: Anti-HER2(NO3-02)_single arm (antibody, human IgG1, kappa)
heavy: not shown
light: DIQMTQSPSSLSASVGDRVTITCRASQNVQGAVAWYQQKPGKAPKLLIYSASFLYSGVPSRFSGSRSGTDFTLTISSLQPEDFATYYCQQHYSTPPTFGQGTKVEIKRTVAAPSVFIFPPSDEQLKSGTASVVCLLNNFYPREAKVQWKVDNALQSGNSQESVTEQDSKDSTYSLSSTLTLSKADYEKHKVYACEVTHQGLSSPVTKSFNRGEC
chain: not shown
notes: also called Anti-HER2 single-arm antibody
B5: Anti-HER2(NO3-46)_single arm (antibody, human IgG1, kappa)
heavy: not shown
light: B4 light with N28S, Y92S, S93T
chain: not shown
notes: as for B4
B6: Anti-HER2(NO3-36)_single arm (antibody, human IgG1, kappa)
heavy: not shown
light: B4 light with Q27N, N28Y, G31T, Y92F, S93M
chain: not shown
notes: as for B4

target: T1, HER2 expressed on human gastric cancer cell N87 (human, UniProt P04626 23-1255); assay: flow cytometry on N87 cells, MFI, anti-human IgG-Fc PE
T1 construct: whole, on cells; N87 cells are described as self-expressing HER2; also called human HER2 on N87 cells; HER2 antigen on N87

Binding result, binds:
B1
B2
B3
B4
B5
B6

target: T2, human HER2 antigen (purchased from AcroBiosystems) (human, UniProt P04626 23-652); assay: BLI (ForteBio), antibody on AHQ sensor, 100 nM HER2, 1:1 model
T2 construct: Bought soluble antigen used at 100 nM in BLI; also called human HER2 protein; HER2 protein

Binding result, binds:
B1
B2
B4
B5
B6

target: T2, human HER2 antigen (purchased from …); assay: BLI (ForteBio), antibody before and after 2 and 4 weeks at 40 C on AHQ sensor, 100 nM human HER2

Binding result, binds:
B3
